Assays:
purified protein [1] = substrate: CO[C@@H]1[C@H](O)[C@@H](COP(=O)(O)OP(=O)(O)OP(=O)(O)OC[C@H]2O[C@@H](n3c[n+](C)c4c(=O)[nH]c(N)nc43)[C@H](O)[C@@H]2O)O[C@H]1n1cnc2c(=O)[nH]c(N)nc21; experiment: purified protein; conditions: cleaved between β and γ phosphates; pH 7.2; 20.0 °C
purified protein [2] = substrate: C[n+]1cn([C@@H]2O[C@H](COP(=O)(O)OP(=O)(O)OP(=O)(O)OC[C@H]3O[C@@H](n4c[n+](C)c5c(=O)[nH]c(N)nc54)[C@H](O)[C@@H]3O)[C@@H](O)[C@H]2O)c2nc(N)[nH]c(=O)c21; experiment: purified protein; conditions: cleaved between β and γ phosphates; pH 7.2; 20.0 °C
purified protein [3] = substrate: Nc1nc2c(ncn2[C@@H]2O[C@H](COP(=O)(O)OP(=O)(O)OP(=O)(O)OC[C@H]3O[C@@H](n4c[n+](Cc5ccccc5)c5c(=O)[nH]c(N)nc54)[C@H](O)[C@@H]3O)[C@@H](O)[C@H]2O)c(=O)[nH]1; experiment: purified protein; conditions: cleaved between β and γ phosphates; cap-binding pocket; pH 7.2; 20.0 °C
purified protein [4] = substrate: CC[n+]1cn([C@@H]2O[C@H](COP(=O)(O)OP(=O)(O)OP(=O)(O)OC[C@H]3O[C@@H](n4cnc5c(=O)[nH]c(N)nc54)[C@H](O)[C@@H]3O)[C@@H](O)[C@H]2O)c2nc(N)[nH]c(=O)c21; experiment: purified protein; conditions: cleaved between β and γ phosphates; cap-binding pocket; pH 7.2; 20.0 °C
purified protein [5] = substrate: C[n+]1cn([C@@H]2O[C@H](COP(=O)(O)OP(=O)(O)OP(=O)(O)OC[C@H]3O[C@@H](n4cnc5c(=O)[nH]c(N)nc54)[C@H](O)[C@@H]3O)[C@@H](O)[C@H]2O)c2nc(N)[nH]c(=O)c21; experiment: purified protein; conditions: cleaved between β and γ phosphates; cap-binding pocket; pH 7.2; 20.0 °C
purified protein [6] = substrate: CN(C)c1nc2c(c(=O)[nH]1)[n+](C)cn2[C@@H]1O[C@H](COP(=O)(O)OP(=O)(O)OP(=O)(O)OC[C@H]2O[C@@H](n3cnc4c(N)ncnc43)[C@H](O)[C@@H]2O)[C@@H](O)[C@H]1O; experiment: purified protein; conditions: cleaved between β and γ phosphates; pH 7.2; 20.0 °C
purified protein [7] = substrate: C[n+]1cn([C@@H]2O[C@H](COP(=O)(O)OP(=O)(O)OP(=O)(O)OC[C@H]3O[C@@H](n4cnc5c(=O)[nH]c(N)nc54)C[C@@H]3O)[C@@H](O)[C@H]2O)c2nc(N)[nH]c(=O)c21; experiment: purified protein; conditions: cleaved between β and γ phosphates; pH 7.2; 20.0 °C
purified protein [8] = substrate: CNc1ncnc2c1ncn2[C@@H]1O[C@H](COP(=O)(O)OP(=O)(O)OP(=O)(O)OC[C@H]2O[C@@H](n3c[n+](C)c4c(=O)[nH]c(N)nc43)[C@H](O)[C@@H]2O)[C@@H](O)[C@H]1O; experiment: purified protein; conditions: cleaved between β and γ phosphates; pH 7.2; 20.0 °C
purified protein [9] = substrate: C[n+]1cn([C@@H]2O[C@H](COP(=O)(O)OP(=O)(O)OP(=O)(O)OC[C@H]3O[C@@H](n4cnc5c(N)ncnc54)[C@H](O)[C@@H]3O)[C@@H](O)[C@H]2O)c2nc(N)[nH]c(=O)c21; experiment: purified protein; conditions: cleaved between β and γ phosphates; pH 7.2; 20.0 °C
[10] = substrate: CN(C)c1nc2c(c(=O)[nH]1)[n+](C)cn2[C@@H]1O[C@H](COP(=O)(O)OP(=O)(O)OP(=O)(O)OC[C@H]2O[C@@H](n3cnc4c(=O)[nH]c(N)nc43)[C@H](O)[C@@H]2O)[C@@H](O)[C@H]1O; experiment: fluorimetric and HPLC hydrolysis kinetics; type: biochemical, Caenorhabditis elegans; conditions: cleaved between β and γ phosphates; cap-binding pocket; pH 7.2; 20.0 °C

B1: C. elegans scavenger decapping enzyme (DcpS) (Caenorhabditis elegans) (protein)
chain: MKRIADEELVREERAEESTQKWLQDAKFQEILGADSSHKSLFVLLSHPDGSQGILLANKSPFSEEKSDIEKLLATAQLQEISRNDIFGSYNIEIDPKLNLLKSQLIYPINDRLIAKYRQEEKFVIRETPELYETVTRPYIEKYQLNLNWVYNCLEKRSEVDKIVFEDPDNENGFVLLQDIKWDGKTLENLYVLAICHRHGLKSVRDLTGDDLEMLYNMRDKSLEAINQKYGLKTDQIKCYFHYQPSFYHLHVHFINLKYDAPASTTMSAILLDDVINNLELNPEHYKKSTLTFTRKNGDKLMEMFREALKN
- Km (purified protein [1]): 1.23 µM
- Vmax (purified protein [1]): 1.66 µmol/min/mg
- Km (purified protein [2]): 1.12 µM
- Vmax (purified protein [2]): 0.91 µmol/min/mg
- Km (purified protein [3]): 1.83 µM
- Vmax (purified protein [3]): 3.06 µmol/min/mg
- Km (purified protein [4]): 0.61 µM
- Vmax (purified protein [4]): 3.12 µmol/min/mg
- Km (purified protein [5]): 1.17 µM
- Vmax (purified protein [5]): 1.53 µmol/min/mg
- Km (purified protein [6]): 2.36 µM
- Vmax (purified protein [6]): 2.06 µmol/min/mg
- Km (purified protein [7]): 1.36 µM
- Vmax (purified protein [7]): 2 µmol/min/mg
- Km (purified protein [8]): 1.03 µM
- Vmax (purified protein [8]): 1.33 µmol/min/mg
- Km (purified protein [9]): 0.6 µM
- Vmax (purified protein [9]): 1.09 µmol/min/mg
- Km [10]: 3.85 µM
- Vmax [10]: 4.65 µmol/min/mg
